Data on two molecules can be found in patent publication US20230295312A1 (AKESO BIOPHARMA, published 2023).

In assay [1] the target is T1, human IL4RA-hFc (human, UniProt P24394 26-232).
T1 construct: mature; Coating antigen in ELISA
T1 sequence (looked up): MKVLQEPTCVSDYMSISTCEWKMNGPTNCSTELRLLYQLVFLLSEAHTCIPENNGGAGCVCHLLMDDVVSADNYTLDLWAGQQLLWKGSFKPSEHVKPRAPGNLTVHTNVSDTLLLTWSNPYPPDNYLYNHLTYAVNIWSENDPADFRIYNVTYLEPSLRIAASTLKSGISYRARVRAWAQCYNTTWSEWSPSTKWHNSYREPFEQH
Put plainly: competitive ELISA vs IL4-N-His; Ab 3 ug/mL. How it is done: The ELISA plates were coated with human IL4RA-hFc and blocked before the antibodies were added. […] After the plates were washed, mouse anti-His, HRP (purchased from CoWin Biosciences, Cat No. CW0285A) was added for incubation. The plates were subjected to another wash. Chromogenic reaction was started by adding TMB (Neogen, 308177) and was then terminated. At the end of the reaction, the OD value at 450 nm wavelength was measured by a plate reader, and was analyzed and processed by SoftMax Pro 6.2.1.
(§1) By 4-parameter logistic regression of absorbance vs. antibody concentration, the blocking EC₅₀ of the antibodies was calculated.
For orientation: An ELISA detects its analyte on a solid surface through an enzyme-linked reagent.

Assay [2] addresses T1, human IL4RA-hFc. Kind of assay: indirect ELISA, antigen coated 1 ug/mL. As to the method: Procedures: The ELISA plates were coated with human IL4RA-hFc or human IL4RA-mFc and were incubated, and target antibodies were added after blocking. […] The plates were incubated and washed before TMB (Neogen, 308177) was added for chromogenic reaction. At the end of the reaction, the absorbance at 450 nm was measured by a plate reader. The data were analyzed by SoftMax Pro 6.2.1.

Assay [3] concerns the target T1, human IL4RA-hFc. Put plainly: competitive ELISA; blocks IL4-N-His binding to coated IL4RA-hFc.
The target of assay [4] is T1, human IL4RA-hFc. Put plainly: competitive ELISA; blocks IL4-N-His (0.15 ug/ml) binding to coated IL4RA-hFc (2 ug/mL). How it is done: The ELISA plates were coated with human IL4RA-hFc and blocked before the antibodies were added. […] After the plates were washed, mouse anti-His, HRP (purchased from CoWin Biosciences, Cat No. CW0285M) was added for incubation. The plates were subjected to another wash. Chromogenic reaction was started by adding TMB (Neogen, 308177) and was then terminated. At the end of the reaction, the OD value at 450 nm wavelength was measured by a plate reader, and was analyzed and processed by SoftMax Pro 6.2.1.
as §1

B1: 13E5 (antibody, V domains shown)
VH: EVQLQQSGPELVKPGASVKISCKTSGYTFTEYTIHWVKQNHGKSLEWIGGINPNNGGTVYNQNFKGKATLTVDKSSSTAYMELRSLTSEDSAVYYCARVRRGMDYWGQGTSVTVSS
VL: DIVMTQSHKFMSTSVGDRVSITCKASQDVTTAVAWYQQKPGQSPKLLIYSASYRYTGVPDRFTGSGSGTDFTFTISSVQAEDLAVYYCQQHYSAPWTFGGGTNLEIK
notes: Murine hybridoma antibody purified on protein A; also called murine antibody 13E5; antibody secreted by hybridoma LT008 (IL4RA-13E5)
As a reminder, the EC50 is the concentration that produces a half-maximal response. Higher therefore signals weaker potency. In turn, B1 showed an OD450 in the assay with human IL4RA-hFc [1] of 0.053. Moreover, the EC50 with human IL4RA-hFc [2] was found to be 0.084 nM; with human IL4RA-hFc [3] it was 3 nM.

B2: 18H7 (antibody, V domains shown)
VH: DVKLVESGGDLVNLGGSLKLSCAASGFTFSSSYMSWVRQTPERRLELVAAINSNGGKTYYPDTVKGRFTISRDNAKNTLYLQMSGLKTEDTALYYCTRQRGNYVGAMDYWGQGTSVTVSS
VL: DIVMTQSHKFMSTSVGDRVSITCKASQDVSTAVVWYQQKPGQSPTLLIYSASYRYTGVPDRFTGSGSGTDFTFTISSVQAEDLAVYYCHQYYGSPPTFGGGTKLEIK
notes: Murine hybridoma antibody purified on protein A; also called murine antibody 18H7; antibody secreted by hybridoma LT009 (IL4RA-18H7)
With B2, the values for the 50% effective concentration (EC50) with human IL4RA-hFc [2] and with human IL4RA-hFc [4] were 0.068 nM and 2.71 nM, respectively.
